T1: MBP-tagged CKL6 (casein kinase1-like 6) (Arabidopsis thaliana, UniProt Q8LPJ1 1-479)
T1 sequence (looked up): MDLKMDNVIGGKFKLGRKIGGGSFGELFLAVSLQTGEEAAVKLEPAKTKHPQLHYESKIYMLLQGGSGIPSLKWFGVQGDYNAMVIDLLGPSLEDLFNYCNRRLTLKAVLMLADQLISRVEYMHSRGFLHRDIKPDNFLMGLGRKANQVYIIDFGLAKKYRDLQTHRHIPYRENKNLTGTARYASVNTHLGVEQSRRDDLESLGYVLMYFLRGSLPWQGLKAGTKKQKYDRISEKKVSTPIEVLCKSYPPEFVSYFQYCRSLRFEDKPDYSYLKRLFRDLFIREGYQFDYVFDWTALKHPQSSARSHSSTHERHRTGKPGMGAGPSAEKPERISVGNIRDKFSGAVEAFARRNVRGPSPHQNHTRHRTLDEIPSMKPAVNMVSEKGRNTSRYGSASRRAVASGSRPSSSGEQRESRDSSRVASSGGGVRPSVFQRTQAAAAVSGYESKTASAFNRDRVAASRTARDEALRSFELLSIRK

B1: FRA1 C-terminal tail fragment (amino acids 616-1035), C-terminal 6xHis fusion (domain or fragment, Arabidopsis thaliana, UniProt Q8GS71 616-1035, looked up)
chain: ARRLQDEIQSIKAQKVQLQHRMKQEAEQFRQWKASREKELLQLRKEGRKSEYERHKLQALNQRQKMVLQRKTEEAAMATKRLKELLEARKSSPREHSAGTNGFGTNGQTNEKSLQRWLDHELEVMVNVHEVRHEYEKQSHVRAALAEELAVLRQVDEFAVKGLSPPRGKNGFARASSLSPNARMARISSLENMLVISSNSLVAMASQLSEAEERERAFTNRGRWNQLRSMGEAKNLLQYMFNSLAETRCQLWEKDVEIKEMKDQFKEIVGLLRQSELRRKEAEKELKLREQAIATSLGTPPSSVKHVAEDLSTPSPMTVPAQKQLKFTPGIANGKVRGPAAFLDTNKKMVPMGQVSMRKLSAVGKQGGRLWRWKRSHHQWIVQFKWKWQKPWRLSEWIRTSDETLLKSKPRLKALPNKIM
B2: MBP-tagged CKL3 (casein kinase1-like 3) (enzyme, Arabidopsis thaliana, UniProt Q93Z18 1-415, looked up)
chain: MERIIGGKYKLGRKIGGGSFGEIFLATHVDTFEIVAVKIENSKTKHPQLLYEAKLYRILEGGSGIPRIKWFGVDGTENALVMDLLGPSLEDLFVYCGRKFSPKTVLMLADQMLTRIEFVHSKGYLHRDIKPDNFLMGLGRKANQVYLIDFGLAKRYRDANTNRHIPYRENKNLTGTARYASCNTHLGIEQSRRDDLESLGYVLLYFLRGSLPWQGLKAVDKKQKYDKICEKKISTPIEVLCKNHPVEFASYFHYCHTLTFDQRPDYGFLKRLFRDLFSREGYEFDYIFDWTIIKYQQAQKSRNQSQAVPGSSNPRAMPVDTSNHRGGPNISYEAEASERVRSANAIGPSPQINNNTAAGRTPGFDHPVHKNMNMPSTSLSPAGTSKRNVGPETSNSGYGSGNRTGWTSSFMSPEK

What was measured:
[1] = target: T1, MBP-tagged CKL6 (casein kinase1-like 6); experiment: pull-down
[2] = target: B1; experiment: pull-down

binding result [1]	binding result [2]	Binder
binds	–	B1
–	binds	B2

Reference: paper doi:10.1101/760389 (bioRxiv, 2019)
